Biological target: the molecule itself
Experiment: SEC-SAXS; purified complexes loaded at 2.55 (CBKP1P2), 0.72 (CBKP1) and 3 mg/ml (CBKP2) on a Bio-SEC3 column; 20 mM Tris pH 8.5, 300 mM NaCl, 5 mM 2-mercaptoethanol, 5% glycerol

B1: CBKP1, four-subunit PaKEOPS complex (PaCgi121/PaBud32/PaKae1/PaPcc1) (complex)
chain 1: MTPKFKNFKHDNSGQVETYLFEVISKYTMLEIKTKFGKLCIAKVKLASESIERALNLCNDNCQIVSAKCHEEVIFATILAIKAFSSGRNTAKTIKGEILLRLAGVKQIKDAIKIIGARKGENLIIYFGVSDPCSSLKDFISSLGLREEPLKPCDEDEVKRGFERAAIIEAL
chain 2: MKLIKQGAEAKIYLAEFSELYFDYPIKVIVKERIKKRYRIPEIDLKLRKERTIREARILRRAKEFGVNVPYVFEVDTKNMIIVMEYIEGERLKELLEKLPMEERLKVCREVGRQIGKLHEAGIVHGDLTTSNMILREGKVYFIDFGLAEFDDTIEAQGVDLHLLKRAMESTHYKWFERGFEEVLKGYIEIRGEDKGREIREKIREIELRGRYRERSWITQ
chain 3: MLALGIEGTAHTLGIGIVSEDKVLANVFDTLTTEKGGIHPKEAAEHHARLMKPLLRKALSEAGVSLDDIDVIAFSQGPGLGPALRVVATAARALAVKYRKPIVGVNHCIAHVEITKMFGVKDPVGLYVSGGNTQVLALEGGRYRVFGETLDIGIGNAIDVFARELGLGFPGGPKVEKLAEKGEKYIELPYAVKGMDLSFSGLLTEAIRKYRSGKYRVEDLAYSFQETAFAALVEVTERAVAHTEKDEVVLVGGVAANNRLREMLRIMTEDRGIKFFVPPYDLCRDNGAMIAYTGLRMYKAGISFRLEETIVKQKFRTDEVEIVW
chain 4: MKPKRVQGKIVIEFPSEDIAEVVYTSVLYEHVSVPYRRSRVNFRREGRRIVLEIEANDSSAMRGTVNSYLRWIKVALDVLNI
  stoichiometry N: 2
